The target of test [1] is T1, human IL-18Rα/IL-18Rβ on transfected HEK293 cells (human, UniProt O95256 20-599).
T1 construct: whole, on cells; also called human IL-18Ralpha+IL-18Rβ subunits
T1 sequence 1: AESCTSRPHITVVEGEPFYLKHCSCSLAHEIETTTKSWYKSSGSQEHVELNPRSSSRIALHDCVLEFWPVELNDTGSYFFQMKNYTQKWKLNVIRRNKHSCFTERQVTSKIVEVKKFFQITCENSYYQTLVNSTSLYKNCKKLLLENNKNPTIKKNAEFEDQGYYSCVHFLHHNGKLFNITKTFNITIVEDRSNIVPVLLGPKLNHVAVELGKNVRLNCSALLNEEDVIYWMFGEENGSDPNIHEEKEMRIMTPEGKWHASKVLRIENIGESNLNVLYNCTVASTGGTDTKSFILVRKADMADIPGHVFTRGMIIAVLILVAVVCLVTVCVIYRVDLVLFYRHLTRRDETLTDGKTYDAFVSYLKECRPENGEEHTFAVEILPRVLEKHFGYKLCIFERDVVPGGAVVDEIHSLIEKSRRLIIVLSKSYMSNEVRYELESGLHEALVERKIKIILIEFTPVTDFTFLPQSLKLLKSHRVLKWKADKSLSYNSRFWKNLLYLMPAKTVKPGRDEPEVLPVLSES
T1 sequence 2: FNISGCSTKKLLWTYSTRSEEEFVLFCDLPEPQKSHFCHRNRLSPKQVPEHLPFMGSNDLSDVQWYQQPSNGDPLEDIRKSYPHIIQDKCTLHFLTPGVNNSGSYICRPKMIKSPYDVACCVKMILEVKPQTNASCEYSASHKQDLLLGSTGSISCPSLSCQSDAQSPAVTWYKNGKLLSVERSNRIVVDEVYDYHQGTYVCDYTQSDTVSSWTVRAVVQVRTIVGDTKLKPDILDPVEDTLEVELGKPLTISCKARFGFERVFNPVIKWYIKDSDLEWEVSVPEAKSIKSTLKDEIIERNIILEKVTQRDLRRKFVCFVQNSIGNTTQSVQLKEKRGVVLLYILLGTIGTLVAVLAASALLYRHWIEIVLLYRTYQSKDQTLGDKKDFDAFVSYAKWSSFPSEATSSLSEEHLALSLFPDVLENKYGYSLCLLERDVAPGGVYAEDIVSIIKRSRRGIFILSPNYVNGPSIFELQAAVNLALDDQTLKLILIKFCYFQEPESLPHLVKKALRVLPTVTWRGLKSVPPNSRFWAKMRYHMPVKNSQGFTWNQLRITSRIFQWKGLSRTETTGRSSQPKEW
Nature of the test: FACS on transfected HEK293 cells, antibody 1 µg/ml. On the procedure: 10⁶ HEK293 cells were transfected with a plasmid expressing human IL-18Ralpha+IL-18Rβ. Transfected cells were incubated for 1 day. 1×10⁵ cells were incubated on ice in PBS-buffer+2% FCS and stained with an IL-18Rα antibody (1 μg/ml). As secondary antibody anti-mouse IgG1-PE from R&D Systems (F0102B) was added in 1:20 dilution and as isotype control mouse IgG1 from BD Pharmingen (557273) was used at a concentration of 1 μg/ml.

The target of test [2] is T2, recombinant human IL-18Rα Fc chimera (R&D Systems, Cat. No. 816-LR) (human, UniProt Q13478 19-329).
T2 construct: Bought protein; also called hIL-18Rα (hFc-chimera R&D-Systems 816-LR); recombinant human IL-18Rα-Fc fusion protein; not shown: human Fc of the commercial chimera
T2 sequence: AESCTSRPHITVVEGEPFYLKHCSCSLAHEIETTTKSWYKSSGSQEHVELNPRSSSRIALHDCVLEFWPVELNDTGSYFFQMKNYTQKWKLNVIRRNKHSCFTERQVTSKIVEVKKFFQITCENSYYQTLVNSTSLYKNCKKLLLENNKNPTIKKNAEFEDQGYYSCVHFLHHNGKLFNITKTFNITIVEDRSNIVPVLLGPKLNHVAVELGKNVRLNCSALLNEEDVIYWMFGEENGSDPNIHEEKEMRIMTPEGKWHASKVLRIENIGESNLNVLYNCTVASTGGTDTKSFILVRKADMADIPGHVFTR
Nature of the test: competition ELISA: inhibition of biotinylated IL-18 (+IL-18Rβ) binding to captured IL-18Rα Fc chimera. On the procedure: The test was performed on 384 well microtiter plates at room temperature (RT). After each incubation step plates were washed 3 times with PBST (Phosphate Buffered Saline Tween®-20). At the beginning, plates were coated with 0.5 μg/ml goat anti-human IgG Fc fragment (Jackson 1 mm. Res., US, Cat. No. 109-006-170) for at least 2 hours (h). Thereafter the wells were blocked with PBS supplemented with 0.1% Tween®-20 and 2% BSA (Roche Diagnostics GmbH, DE) for 1 h. 0.2 μg/ml of recombinant human IL-18Rα Fc chimera (R&D Systems, UK, Cat. No. 816-LR) was captured for 1 h. Dilutions of purified antibodies in PBS with 0.5% BSA and 0.05% Tween®-20 were incubated with the receptor protein for 1 h. Biotinylated human IL-18 (MBL International, US, Cat. No. B003-5) and 0.2 μg/ml IL-18R13 (R&D Systems, UK, Cat. No. 118-AP) were added for an additional hour to build up the trimeric complex. IL-18 was biotinylated with Sulfo-NHS-LC-Biotin (Thermo Scientific Pierce, US, Cat. No. 21327) according to the manufacturer's protocol and purified using Zeba™ Desalt Spin Column (Thermo Scientific Pierce, US, Cat. No. 89889). Binding of the biotinylated IL-18 to the complex was detected with 1:2000 diluted streptavidin HRP (Roche Diagnostics GmbH, DE, Cat. No. 11089153001). […] Absorbance was measured at 370 nm. […]

Substitutions are numbered along the chain they refer to. Several values for one entry are separate records, joined by “and”; a condition that tells them apart may be missing. Equal values may be shown once.

B1: Mab 1G12 (antibody, V domains shown)
VH: QVQLQQPGAELVKPGASVRMSCKTSDYTFTSNWMHWVKQRPGQGLEWIGTIDPSDSYTYYNQKFKGRATLTVDTSSSTAYMQLSSLTSEDSAVYYCTTSGDYDADRYFDVWGAGTTVTVSS
VL: DIVLTQSPASLGVSLGQRATISCRASKSVSTSGDSYMHWYQQKPGQSPKLLIYLASNLESGVPARFSGSGSGTDFTLNIHPVEEEDAATYYCQQSRELPLSFGAGTKLELK
notes: Monoclonal antibody from immunized NMRI mice; detected with anti-mouse IgG1-PE / anti-mouse IgG; also called F20.1G12; monoclonal antibody 1G12
For B1, the binding result in test [1] was “binds”. Besides, the half-maximal inhibitory concentration (IC50) in test [2] was 0.022 µg/mL and 0.15 nM.

B2: Mab 2D11 (antibody, V domains shown)
VH: B1 VH with R19K, T24A, R67K, Q82H
VL: B1 VL
notes: Monoclonal antibody from immunized NMRI mice; detected with anti-mouse IgG1-PE / anti-mouse IgG; also called F20.2D11
Take B2: the binding result in test [1] is listed as “binds”. In test [2], the IC50 was 0.029 µg/mL and 0.19 nM.

Source of the values: patent publication US20120156198A1 (Hoffmann-La Roche, published 2012).
